± gives the standard deviation of the averaged measurements.
The sequences below were run on Saccharomyces cerevisiae (assay: protein stability index of tFT-peptide fusion (C-terminal peptide) (PSI (0-1 scale)); higher = more stable (slower turnover)). Conditions: genetic background: wild type; temperature: 30 C.
Experimental: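 Multiplexed protein stability (MPS) profiling in S. cerevisiae. Random 12-aa peptides (tFT-X12 library) are fused to the C-terminus of a sfGFP-mCherry tandem fluorescent timer, after mCherry and a GGGS linker. Cells are FACS-sorted into 8 mCherry/sfGFP bins and deep-sequenced. The protein stability index (PSI) is the read-weighted bin average, scaled from 0 (unstable) to 1 (stable). Only peptides with >10 reads are reported; cells were grown at 30 °C in SC-His with glucose.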
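Further: PSI is a weighted mean of sequencing reads over stability bins, variants kept only with over 10 reads, mCherry proximal and sfGFP distal, peptide attached via GGGS linker.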

For CGSGWDRSVGIG, which protein stability index is on record?
The protein stability index was 0.531 ± 0.027.

For CGSHNRGLSSQL, which protein stability index is on record?
The protein stability index was 0.676 ± 0.022.

For CGVGGVRCGLLG, which protein stability index is on record?
Its protein stability index is 0.667 ± 0.029.

Which protein stability index does the source give for CGVGWGMGEGWR here?
Its protein stability index is 0.6956 ± 0.00081.

CGVRQVGEIAVA was tested. Which protein stability index did it give?
Its protein stability index is 0.526 ± 0.022.

CGWASSWHSGLH was tested. Which protein stability index did it give?
Its protein stability index is 0.6874 ± 0.00071.

With CGWCCVVCSCLV as the sequence, how does the protein stability index read?
The protein stability index was 0.602 ± 0.06.

CGWMVSAGRLGG was tested. Which protein stability index did it give?
The protein stability index was 0.655 ± 0.022.

CHALPPLLPDPL was tested. Which protein stability index did it give?
The protein stability index was 0.715 ± 0.028.

How did the protein stability index turn out when CIARPSGNRSYL was run?
Its protein stability index is 0.714 ± 0.069.

CINDSEYHSTMF was tested. Which protein stability index did it give?
The protein stability index was 0.741 ± 0.043.

How did the protein stability index turn out when CIRSSSTEPCLP was run?
Its protein stability index is 0.685 ± 0.00086.

CIYPYSSLLMRI was tested. Which protein stability index did it give?
The protein stability index was 0.532 ± 0.028.

How did the protein stability index turn out when CKGIGLGGGVVS was run?
Its protein stability index is 0.599 ± 0.033.

With CKRDENKKIILR as the sequence, how does the protein stability index read?
Its protein stability index is 0.727 ± 0.014.

CLAAPIQDGGLT was tested. Which protein stability index did it give?
The protein stability index was 0.684 ± 0.086.

CLAIWSNLNECH was tested. Which protein stability index did it give?
The protein stability index was 0.715 ± 0.034.

CLARPVFFSFIG was tested. Which protein stability index did it give?
Its protein stability index is 0.559 ± 0.029.

For CLATAMARSQRE, which protein stability index is on record?
The protein stability index was 0.683 ± 0.024.

How did the protein stability index turn out when CLCCTSFPPPFP was run?
The protein stability index was 0.673 ± 0.057.

With CLCPPPPLPVPR as the sequence, how does the protein stability index read?
The protein stability index was 0.699 ± 0.092.

CLLLSLRVPPFS was tested. Which protein stability index did it give?
The protein stability index was 0.638 ± 0.012.

For CLPHYSQVLLNW, which protein stability index is on record?
Its protein stability index is 0.715 ± 0.098.

For CLPPSPASFHPL, which protein stability index is on record?
Its protein stability index is 0.65 ± 0.056.

Which protein stability index does the source give for CLPSQSAESLTF here?
Its protein stability index is 0.664 ± 0.02.

For CLSPAFGCWWIV, which protein stability index is on record?
The protein stability index was 0.582 ± 0.11.

With CNGRREAGHVDM as the sequence, how does the protein stability index read?
Its protein stability index is 0.624 ± 0.13.

Which protein stability index does the source give for CPALPPAPLSPL here?
The protein stability index was 0.725 ± 0.018.

For CPCRCLGFRWCF, which protein stability index is on record?
The protein stability index was 0.631 ± 0.076.

With CPFLSISSNCSM as the sequence, how does the protein stability index read?
Its protein stability index is 0.667 ± 0.027.

How did the protein stability index turn out when CPGGQVECGVLC was run?
Its protein stability index is 0.652 ± 0.021.

CPHSLDTFVSKF was tested. Which protein stability index did it give?
The protein stability index was 0.704 ± 0.066.

CPNLWSRFASRC was tested. Which protein stability index did it give?
Its protein stability index is 0.716 ± 0.0085.

For CPPLSPPLLLLL, which protein stability index is on record?
Its protein stability index is 0.667 ± 0.017.

For CPRRGSHLARLL, which protein stability index is on record?
Its protein stability index is 0.621 ± 0.038.

For CPSFTSVLPSVP, which protein stability index is on record?
The protein stability index was 0.678 ± 0.036.

Which protein stability index does the source give for CPSHPDCFPDRL here?
Its protein stability index is 0.6792 ± 0.0039.

With CPSRCGLRAPYL as the sequence, how does the protein stability index read?
Its protein stability index is 0.706 ± 0.017.

Which protein stability index does the source give for CPTLSSHLLFPS here?
The protein stability index was 0.659 ± 0.087.

With CQPTTTCTGGNV as the sequence, how does the protein stability index read?
Its protein stability index is 0.693 ± 0.035.

Which protein stability index does the source give for CRFPFRILHPPF here?
The protein stability index was 0.68957 ± 0.00018.

For CRFYKYIRNMFR, which protein stability index is on record?
Its protein stability index is 0.674 ± 0.074.

How did the protein stability index turn out when CRGGRHFSREKF was run?
Its protein stability index is 0.723 ± 0.036.

For CRGWWRPGLGVT, which protein stability index is on record?
Its protein stability index is 0.64 ± 0.015.

For CRILRPITLRFR, which protein stability index is on record?
Its protein stability index is 0.528 ± 0.013.

With CRLRHPFPLSTR as the sequence, how does the protein stability index read?
The protein stability index was 0.644 ± 0.052.

Which protein stability index does the source give for CRLSCRSVDAST here?
The protein stability index was 0.662 ± 0.022.

CRLTAWDESGSG was tested. Which protein stability index did it give?
The protein stability index was 0.673 ± 0.025.

With CRPAASCLPPER as the sequence, how does the protein stability index read?
The protein stability index was 0.6684 ± 0.0066.

CRRLSICPILFL was tested. Which protein stability index did it give?
The protein stability index was 0.607 ± 0.0062.

How did the protein stability index turn out when CRRRGPWDRRSR was run?
Its protein stability index is 0.624 ± 0.014.

For CRRRNRLLLFRK, which protein stability index is on record?
Its protein stability index is 0.697 ± 0.037.

For CRSCFGGGVRFV, which protein stability index is on record?
The protein stability index was 0.743 ± 0.076.

For CRTTDFQCTIGN, which protein stability index is on record?
Its protein stability index is 0.683 ± 0.0087.

With CRVALSRGVSLV as the sequence, how does the protein stability index read?
The protein stability index was 0.65 ± 0.0094.

How did the protein stability index turn out when CRVVRPSLEPQV was run?
The protein stability index was 0.697 ± 0.02.

CRWLLWVDGWRV was tested. Which protein stability index did it give?
The protein stability index was 0.5838 ± 0.0043.

How did the protein stability index turn out when CSAESASPAERY was run?
The protein stability index was 0.6541 ± 0.0013.

For CSHSLVLRFCPF, which protein stability index is on record?
The protein stability index was 0.607 ± 0.059.

With CSLLCKCHLRRL as the sequence, how does the protein stability index read?
Its protein stability index is 0.712 ± 0.1.

For CSLLFFFLLSFG, which protein stability index is on record?
Its protein stability index is 0.521 ± 0.021.

How did the protein stability index turn out when CSLWVLKLFLGV was run?
Its protein stability index is 0.544 ± 0.012.

How did the protein stability index turn out when CSPRPPPRSLHP was run?
Its protein stability index is 0.812 ± 0.024.

With CSPSPARPPPPR as the sequence, how does the protein stability index read?
The protein stability index was 0.684 ± 0.013.

With CSRGVVLFLGFL as the sequence, how does the protein stability index read?
Its protein stability index is 0.586 ± 0.016.

How did the protein stability index turn out when CSRPPFLLFVSP was run?
Its protein stability index is 0.702 ± 0.0076.

CSRTSKKMSIGG was tested. Which protein stability index did it give?
The protein stability index was 0.613 ± 0.019.

For CSSLLSSFSLRL, which protein stability index is on record?
The protein stability index was 0.671 ± 0.038.

Which protein stability index does the source give for CSSVTEFWWAVF here?
Its protein stability index is 0.766 ± 0.1.

CTMEDLGNCEGI was tested. Which protein stability index did it give?
The protein stability index was 0.691 ± 0.0082.

How did the protein stability index turn out when CVAFLAGIVSFL was run?
Its protein stability index is 0.525 ± 0.019.

For CVCGRFGGELGV, which protein stability index is on record?
Its protein stability index is 0.653 ± 0.1.

How did the protein stability index turn out when CVCPLPLDSPVS was run?
The protein stability index was 0.629 ± 0.081.

With CVERVGSTPMDS as the sequence, how does the protein stability index read?
The protein stability index was 0.607 ± 0.053.

CVLLSEVNRTMG was tested. Which protein stability index did it give?
The protein stability index was 0.646 ± 0.041.

With CVLVVCRFTGDW as the sequence, how does the protein stability index read?
The protein stability index was 0.5083 ± 0.0038.

How did the protein stability index turn out when CVQVMTWAMLEC was run?
The protein stability index was 0.618 ± 0.022.

Which protein stability index does the source give for CVSRLIPGDKHE here?
The protein stability index was 0.67 ± 0.032.

Which protein stability index does the source give for CVVRADGVVGIL here?
The protein stability index was 0.649 ± 0.012.

For CVYGWVGRGWGA, which protein stability index is on record?
Its protein stability index is 0.707 ± 0.079.

For CWCGLGVWAFGV, which protein stability index is on record?
The protein stability index was 0.715 ± 0.039.

CWGAGGRTVING was tested. Which protein stability index did it give?
Its protein stability index is 0.68 ± 0.034.

Which protein stability index does the source give for CWGEGGRTVING here?
The protein stability index was 0.639 ± 0.03.

For CWSSPSFSLLFP, which protein stability index is on record?
Its protein stability index is 0.779 ± 0.028.

With CWVNDGCPICGW as the sequence, how does the protein stability index read?
The protein stability index was 0.732 ± 0.072.

Which protein stability index does the source give for CYCPPPGMPVPF here?
Its protein stability index is 0.736 ± 0.095.

DACPLAEGGGAA was tested. Which protein stability index did it give?
Its protein stability index is 0.717 ± 0.035.

Which protein stability index does the source give for DAFWLRSRRSEG here?
Its protein stability index is 0.712 ± 0.0039.

For DALGRSNGPPRV, which protein stability index is on record?
The protein stability index was 0.673 ± 0.027.

Which protein stability index does the source give for DAPSPPLTGVSR here?
The protein stability index was 0.645 ± 0.01.

For DASELLGRPVVL, which protein stability index is on record?
Its protein stability index is 0.748 ± 0.012.

With DAVWTRGGEGVW as the sequence, how does the protein stability index read?
The protein stability index was 0.718 ± 0.019.

DCFISPRIFRPK was tested. Which protein stability index did it give?
Its protein stability index is 0.721 ± 0.023.

For DCKTCVVGCELF, which protein stability index is on record?
Its protein stability index is 0.697 ± 0.043.

DCKVLIGQYQRE was tested. Which protein stability index did it give?
The protein stability index was 0.7 ± 0.0098.

With DCPLPPRYRAPL as the sequence, how does the protein stability index read?
Its protein stability index is 0.691 ± 0.043.

DDGRDTLCGRGS was tested. Which protein stability index did it give?
The protein stability index was 0.68 ± 0.042.

Which protein stability index does the source give for DDRFNVGNLPQG here?
The protein stability index was 0.672 ± 0.046.

Reference: the supplement of paper PMC10724198
